Measured values: publication PMC11187117, “Structure of the endosomal CORVET tethering complex” (Nature Communications, 2024)

T1: Vps8 with 3xFLAG tag (CORVET subunit) (yeast, UniProt P39702 1-1274)
T1 construct: UniProt P39702 printed for its AlphaFold model
T1 sequence: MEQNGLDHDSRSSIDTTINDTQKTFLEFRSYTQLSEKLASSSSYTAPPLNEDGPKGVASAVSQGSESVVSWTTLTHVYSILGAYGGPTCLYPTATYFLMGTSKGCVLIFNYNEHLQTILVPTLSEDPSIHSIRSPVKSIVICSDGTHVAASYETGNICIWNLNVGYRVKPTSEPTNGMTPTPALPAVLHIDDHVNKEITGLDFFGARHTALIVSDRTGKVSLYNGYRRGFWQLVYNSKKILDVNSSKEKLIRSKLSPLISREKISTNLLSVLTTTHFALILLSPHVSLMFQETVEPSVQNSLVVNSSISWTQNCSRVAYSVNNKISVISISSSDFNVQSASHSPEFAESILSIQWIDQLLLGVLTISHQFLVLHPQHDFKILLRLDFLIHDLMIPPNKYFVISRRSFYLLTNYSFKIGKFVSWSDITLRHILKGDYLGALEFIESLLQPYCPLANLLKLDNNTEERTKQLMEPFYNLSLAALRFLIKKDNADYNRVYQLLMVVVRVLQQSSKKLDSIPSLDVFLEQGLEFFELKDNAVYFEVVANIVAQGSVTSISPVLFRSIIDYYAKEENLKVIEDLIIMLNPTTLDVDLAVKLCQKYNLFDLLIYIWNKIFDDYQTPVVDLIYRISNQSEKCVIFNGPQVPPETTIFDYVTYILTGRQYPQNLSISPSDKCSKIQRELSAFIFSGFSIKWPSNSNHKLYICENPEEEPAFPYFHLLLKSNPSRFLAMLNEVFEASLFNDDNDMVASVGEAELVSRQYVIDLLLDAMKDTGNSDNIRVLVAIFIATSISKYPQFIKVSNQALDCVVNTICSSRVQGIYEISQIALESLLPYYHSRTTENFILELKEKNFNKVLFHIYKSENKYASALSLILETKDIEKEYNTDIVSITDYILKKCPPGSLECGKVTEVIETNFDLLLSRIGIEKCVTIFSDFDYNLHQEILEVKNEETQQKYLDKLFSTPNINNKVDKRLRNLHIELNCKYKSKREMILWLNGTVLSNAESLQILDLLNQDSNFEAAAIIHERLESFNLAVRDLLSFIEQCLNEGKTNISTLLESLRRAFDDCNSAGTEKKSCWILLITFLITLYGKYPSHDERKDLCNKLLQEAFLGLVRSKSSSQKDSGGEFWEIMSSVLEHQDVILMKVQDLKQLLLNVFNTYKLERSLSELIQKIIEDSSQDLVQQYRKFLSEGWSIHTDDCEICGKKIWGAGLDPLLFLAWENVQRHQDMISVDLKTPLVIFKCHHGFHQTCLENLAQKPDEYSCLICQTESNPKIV

T2: Vps18 (CORVET and HOPS core subunit) (yeast, UniProt P27801 1-918)
T2 construct: Vps18, yeast, core subunit shared by CORVET and HOPS
T2 sequence: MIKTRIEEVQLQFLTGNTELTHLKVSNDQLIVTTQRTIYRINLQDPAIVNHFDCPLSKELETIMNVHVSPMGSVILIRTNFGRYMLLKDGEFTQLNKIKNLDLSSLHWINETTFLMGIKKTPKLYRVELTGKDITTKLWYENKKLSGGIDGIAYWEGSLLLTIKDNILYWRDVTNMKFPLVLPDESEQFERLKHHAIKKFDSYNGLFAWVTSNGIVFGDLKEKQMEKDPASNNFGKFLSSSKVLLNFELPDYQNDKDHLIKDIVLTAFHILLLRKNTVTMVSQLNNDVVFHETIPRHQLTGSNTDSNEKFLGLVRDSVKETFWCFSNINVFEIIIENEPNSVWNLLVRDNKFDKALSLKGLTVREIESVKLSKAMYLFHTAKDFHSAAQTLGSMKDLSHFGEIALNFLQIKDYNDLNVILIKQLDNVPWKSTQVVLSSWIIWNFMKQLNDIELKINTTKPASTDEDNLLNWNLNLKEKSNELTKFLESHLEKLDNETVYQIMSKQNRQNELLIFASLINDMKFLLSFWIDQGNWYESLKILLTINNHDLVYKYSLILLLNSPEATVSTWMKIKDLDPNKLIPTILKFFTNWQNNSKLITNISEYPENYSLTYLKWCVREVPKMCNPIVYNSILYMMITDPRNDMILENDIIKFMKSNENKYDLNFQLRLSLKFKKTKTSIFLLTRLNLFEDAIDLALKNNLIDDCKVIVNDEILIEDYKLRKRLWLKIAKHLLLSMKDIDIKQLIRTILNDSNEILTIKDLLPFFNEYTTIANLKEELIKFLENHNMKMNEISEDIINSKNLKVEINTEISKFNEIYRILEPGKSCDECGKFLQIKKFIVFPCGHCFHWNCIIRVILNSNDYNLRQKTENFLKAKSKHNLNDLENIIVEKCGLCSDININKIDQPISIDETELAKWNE

B1: Vps3 (CORVET subunit) (natural protein, yeast)
chain: MVKKKTNNDKGKEVKENEGKLDIDSESSPHERENDKKKTEDDSLRATESEETNTHNANPNETVRADKFSQEESRPIEDSPHTDKNTAQESCQPSSAEDNVINTDITSLNEKTSTNDEQEKGLPLKISEGPFTISTLLDNVPSDLIYTCCEAYENHIFLGTTTGDLLHYFELERGNYMLVSQTKFDAESNSKIDKILLLPKVEGALILCDNELVLFILPEFAPRPNTTRLKGISDVVICNFSRSSKAYRIYAFHAEGVRLLKISADSLVLTKAFNFKLIDKACAHEETLMVSKLNSYELINLKSSQVIPLFRISETDEDLEPIITSFNEQSEFLVCSGGGSYDSGAMALVVNHHGDIIKGTIVLKNYPRNVIVEFPYIIAESAFQSVDIYSALPSEKSQLLQSITTSGSDLKISKSDNVFTNTNNSEEFKEKIFNKLRLEPLTHSDNKFRIERERAFVEESYEEKTSLIVYNNLGIHLLVPTPMVLRFTSCEESEIDNIEDQLKKLAKKDLTKFEHIEAKYLMSLLLFLMTLHYDHIEDEVMKKWCDFSDKVDIRILFYMFGWKVYSEIWCFHGLINIVERLKSLKLTNKCENILKMLLMMKNELKKKNKTGLLTNDFDDIMKTIDITLFKLRLEKKETITVDMFERESYDEIIREINLHDDKLPRIELLIEIYKEKGEYLKALNLLREAGDYISLVSFIEENLKKLPEDYIKERIADDLLLTLKQGDENTEECAIKKVLKILDMACINKNDFLNKIPAEETSLKVSFIEQLGVQNSNDSKFLFNYYLAKLREIINQSNIWSILGDFIKEYKDDFAYDKTDITNFIHIKLKHSLQCENFSKYYEKCENLKSENEKDDEFINFTFDEISKIDKEHILTLLFFPNELTNWVSSEELLKIYLSFNDFRSVEKYIGKQNLVAVMKQYLDISSLNYSVELVTNLLQRNFELLDDTDIQLKILETIPSVFPVQTISELLLKVLIKYQEKKEESNLRKCLLKNQISISDELSRNFDSQG
notes: UniProt P23643 printed for its AlphaFold model; N-terminal half (with the β-propeller) was removed from the deposited model; source: yeast lysate in the Vps8-ALFA pull-downs
B2: Vps16 (CORVET and HOPS subunit, SNARE-binding module) (natural protein, yeast)
chain: MKNPSFDWERLKDVFYRSRAIGELKWPTQYEEFKCALSLTVIAVEIQDFIQVYNYFGQLLGKINLQRIHEDIIKFEFDKDEKLILVTKSSIKIVKGWSPLTIESVPLQDPTIDTIWDYHNGIMLLAKSRDIYKLNGNEWELLYENKDKKYNLLTKNHWSCNDDSIILLDVDHVYQVSTSNGALLKLITDSSWHKVTISSRGFICLYNMKDNKLQIFRDPARILMEHNLDSTPDDICWCGNDTVACSFEDEIKLYGPDGLYVTFWYPFTVTNLRAEVDGLKVITTEKIYFLSRVQPQTSNIFRIGSTEPGAMLVDSFSLLEDHAPKAIEILKNFVLEKGVLDCIAAAIDEFEPKLQKMLLNAASYGKASLQYKSFDASIFVNACNTIKLLNCFRSFGIFLTVEEYRCISLKGVIDRLLKYHRYYECIQICKLANERFLLGYVFTEWAKDKIKGSPDMEDDELLDKIKSRLSVIDMTDTLQMVAVAKVAYLEGRFQLSRNLALLEKNEEARIEQLYNLDDDSIALKECIKVQNYSLTISLLIALSKKLTNSQLTKLLIIDMFNNPLYLYYMRMDKAYLYDFYRQTDRFIDLAHVLLQQGKEQQSLHSFLPQIKDLYSQVQNSEVVNNTIEQLQRQEKLWIYQESLGKRFAISFTNMTLDQTLSKLIETGQDKQVKEIVKKFKISEKKLYHLKCKTLVEAKKFDELLQFAQSRKSPIGYMPFYTYLKSRGHMDKASPYVNMIPGLSYQEKKKLYVECRGFRDAIQLAGKEKDIPGLKEIYNIIPPNEPELKALANETMSRI
notes: Vps16, yeast, subunit shared by CORVET and HOPS
B3: Vps11 (CORVET and HOPS core subunit) (natural protein, yeast)
chain: MSLSSWRQFQLFENIPIRDPNFGGDSLLYSDPTLCAATIVDPQTLIIAVNSNIIKVVKLNQSQVIHEFQSFPHDFQITFLKVINGEFLVALAESIGKPSLIRVYKLEKLPNREQLYHSQVELKNGNNTYPISVVSISNDLSCIVVGFINGKIILIRGDISRDRGSQQRIIYEDPSKEPITALFLNNDATACFAATTSRILLFNTTGRNRGRPSLVLNSKNGLDLNCGSFNPATNEFICCLSNFIEFFSSSGKKHQFAFDLSLRKRIFCVDKDHILIVTEETGVPTTSISVNELSPTIINRIFIIDAKNKIISLNFVVSSAIIDIFSTSQSGKNITYLLTSEGVMHRITPKSLENQINIIIQKELYPFALQLAKQHSLSPLDVQEIHKKYGDYLFKKGLRKEATDQYIQCLDVVETSEIISKFGVKEVPDPESMRNLADYLWSLIKNSISQRDHVTLLLIVLIKLKDVEGIDTFIQHFDRKGIWNEGVVMDDMDDVTFFYSDNDFFDLDLILELMKESDFKRLSYRLAKKYSKDSLIIVDILLNLLHNPVKAIKYIKSLPIDETLRCLVTYSKKLLEESPNETNALLIEVFTGKFKPSTFEVDLDRRDTTGDFSENIRTVFYSYKTFFNYMNSNGTSDAMSESSEASHEHEEPTYHPPKPSIVFSSFVTKPFEFVVFLEACLACYQQYEGFDEDRQVILTTLYDLYLNLAQNDVPERIDDWRSRATGVLRESNKLVYSAASNNTSKRVDNSIMLLISHMDQSSASAKDKTKIDIASFANDNPEMDLLSTFRAMTLNEEPSTCLKFLEKYGTEEPKLLQVALSYFVSNKLIFKEMGGNEVLKEKVLRPIIEGERMPLLDIIKALSRTNVAHFGLIQDIIIDHVKTEDTEIKRNEKLIESYDKELKEKNKKLKNTINSDQPLHVPLKNQTCFMCRLTLDIPVVFFKCGHIYHQHCLNEEEDTLESERKLFKCPKCLVDLETSNKLFEAQHEVVEKNDLLNFALNSEEGSRDRFKVITEFLGRGAISYSDITI
notes: Vps11, yeast, core subunit shared by CORVET and HOPS

Columns and labels:
Test in all cases: cryo-EM structure; single-particle cryo-EM of the hexameric CORVET co-expressed in yeast and purified by 3xFLAG on Vps8 and SEC; about 0.8 mg/ml; consensus map 4.6 Å, local refinements to 3.8 Å
Conditions in all cases: both partners purified
[1] = target: B3
[2] = target: T1, Vps8 with 3xFLAG tag (CORVET subunit)
[3] = target: T2, Vps18 (CORVET and HOPS core subunit)

B1: binds [1].

B2: binds [2]; binds [3].

B3: binds [2].
